This is an account of results in the supplement of paper PMC7877785.

± gives the uncertainty stated by the source.

A short description of the data set: self-splicing fitness, log relative to wild type (ln ratio); higher = more splicing; Tetrahymena group I intron in knt gene, E. coli kanamycin selection, DiMSum; sequences stand for … in CUCUCU…GGAGGGAAAAGUUAUCAGGCAUGCACCUGGUAGCUAGUCUUUAAACCAAUAGAUUGCAUCGGUUUAAAAGGCAAGACCGUCAAAUUGCGGGAAAGGGGUCAACAGCCGUUCAGUACCAAGUCUCAGGGGAAACUUUGAGAUGGCCUUGCAAAGGGUAUGGUAAUAAGCUGACGGACAUGGUCCUAACCACGCAGCCAAGUCCUAAGUCAACAGAUCUUCUGUUGAUAUGGAUGCAGUUCACAGACUAAAUGUCGGUCGGGGAAGAUGUAUUCUUCUCAUAAGAUAUAGUCGGACCUCUCCUUAAUGGGAGCUAGCGGAUGAAGUGAUGCAACACUGGAGCCGCUGGGAACUAAUUUGUAUGCGAAAGUAUAUUGAUUAGUUUUGGAGUACUCGUGGUCG
Summed up: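 DiMSum derived fitness as the error-weighted combination of fold changes across replicates, kanamycin versus no kanamycin, normalised to wild type. E. coli BL21(DE3) held the library, which randomised all eight P1ex-region intron nucleotides within the knt kanamycin-resistance gene on pET-22b(+). Six replicate transformations grew overnight at 37°C or 30°C on LB agar with or without 25 μg/mL kanamycin, also containing 100 μg/mL carbenicillin, 50 μM IPTG and 0.2% rhamnose, and pooled colonies were amplicon-sequenced on an Illumina HiSeq 2500.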

For the sequence GGGUAGCAAUAUUACGCAGG, for the setting “37 °C”, the “self-splicing fitness (ln)” value was -2.34 ± 0.25.
For the sequence GGCUAGCAAUAUUACGCCCG, the “self-splicing fitness (ln)” value (30 °C) is -4.06 ± 0.47 and the “self-splicing fitness (ln)” value (37 °C) is -3.68 ± 0.26.
Regarding CAUCAGCAAUAUUACGGUAC, the “self-splicing fitness (ln)” value is -2.95 ± 0.17 (30 °C) and -2.71 ± 0.18 (37 °C).
Consider CCAUAGCAAUAUUACGGGAC, for which, where the note is “37 °C”, the “self-splicing fitness (ln)” value is -2.82 ± 0.28.
UCCUAGCAAUAUUACGUCAA: where the note is “37 °C”, the “self-splicing fitness (ln)” value is -1.52 ± 0.39.
For GCGUAGCAAUAUUACGUUGG, the “self-splicing fitness (ln)” value is, setting by setting: (30 °C) -2.62 ± 0.24; (37 °C) -2.96 ± 0.32.
Turning to ACAAAGCAAUAUUACGGCCG, the “self-splicing fitness (ln)” value is, setting by setting: (30 °C) -0.257 ± 0.09; (37 °C) 0.0921 ± 0.14.
On the same counts, the results for CCGUAGCAAUAUUACGAGCU are -3.28 ± 0.22 and -3.35 ± 0.24.
Turning to UGAUAGCAAUAUUACGCCUC, the “self-splicing fitness (ln)” value is, setting by setting: (30 °C) -3.09 ± 0.32; (37 °C) -1.34 ± 0.39.
The like results for GGCAAGCAAUAUUACGUACA were, in that order, -0.414 ± 0.071 and 0.296 ± 0.094.
On the same counts, the results for GAUAAGCAAUAUUACGGUCU are -2.33 ± 0.12 and -1.46 ± 0.14.
As to UUUAAGCAAUAUUACGUCUA, the “self-splicing fitness (ln)” value (30 °C) was -0.606 ± 0.085 and the “self-splicing fitness (ln)” value (37 °C) is -0.214 ± 0.1.
Regarding AGCAAGCAAUAUUACGCUUG, the “self-splicing fitness (ln)” value is -4.25 ± 0.28 (30 °C) and -1.29 ± 0.2 (37 °C).
As for UAGAAGCAAUAUUACGUUGC, the “self-splicing fitness (ln)” value runs as follows: (30 °C) -4.3 ± 0.27; (37 °C) -2.82 ± 0.24.
With AACGAGCAAUAUUACGAACU, the “self-splicing fitness (ln)” value runs as follows: (30 °C) -1.11 ± 0.13; (37 °C) -1.42 ± 0.16.
As to GCGGAGCAAUAUUACGUUCG, the “self-splicing fitness (ln)” value (37 °C) was -0.666 ± 0.37.
Take AUUUAGCAAUAUUACGGGCA: the “self-splicing fitness (ln)” value runs as follows: (30 °C) -1.56 ± 0.19; (37 °C) -0.452 ± 0.26.
As to UCAUAGCAAUAUUACGAGCU, the “self-splicing fitness (ln)” value was -2.69 ± 0.26 (30 °C) and -2.72 ± 0.3 (37 °C).
For the sequence CCUUAGCAAUAUUACGGCCG, the “self-splicing fitness (ln)” value is, setting by setting: (30 °C) -1.85 ± 0.23; (37 °C) -0.27 ± 0.35.
On the same counts, the results for ACUUAGCAAUAUUACGCGUU are -2.5 ± 0.12 and -2.05 ± 0.12.
On the same counts, the results for UCACAGCAAUAUUACGCUAC are -3.12 ± 0.19 and -2.77 ± 0.21.
Take UCAUAGCAAUAUUACGCGCG: the “self-splicing fitness (ln)” value (30 °C) was -0.405 ± 0.3 and the “self-splicing fitness (ln)” value (37 °C) is -0.412 ± 0.21.
For CUAAAGCAAUAUUACGGGUA, the “self-splicing fitness (ln)” value is, setting by setting: (30 °C) -4.44 ± 0.32; (37 °C) -2.3 ± 0.3.
On to CUACAGCAAUAUUACGCUUA, for which the “self-splicing fitness (ln)” value (30 °C) is -3.44 ± 0.19 and the “self-splicing fitness (ln)” value (37 °C) is -2.65 ± 0.19.
In the case of CGUAAGCAAUAUUACGAAUG, the “self-splicing fitness (ln)” value reads like this: (30 °C) -0.363 ± 0.081; (37 °C) -0.692 ± 0.088.
On to CGCCAGCAAUAUUACGCAUG, for which the “self-splicing fitness (ln)” value is, setting by setting: (30 °C) -0.241 ± 0.077; (37 °C) -1.06 ± 0.1.
Regarding GCAGAGCAAUAUUACGACCU, the “self-splicing fitness (ln)” value (37 °C) was -1.59 ± 0.42.
Regarding GGUAAGCAAUAUUACGCUGU, the “self-splicing fitness (ln)” value (30 °C) is -3.25 ± 0.29 and the “self-splicing fitness (ln)” value (37 °C) is -1.65 ± 0.23.
The like results for CCUGAGCAAUAUUACGGUCC were, in that order, -1.71 ± 0.36 and -1.22 ± 0.43.
As for CCUAAGCAAUAUUACGAUUC, the “self-splicing fitness (ln)” value (30 °C) was -3.13 ± 0.29 and the “self-splicing fitness (ln)” value (37 °C) was -2.6 ± 0.41.
Consider AGCUAGCAAUAUUACGUCUG, for which the “self-splicing fitness (ln)” value (30 °C) is -1.88 ± 0.097 and the “self-splicing fitness (ln)” value (37 °C) was -1.56 ± 0.13.
CACUAGCAAUAUUACGUCCU: the “self-splicing fitness (ln)” value reads like this: (30 °C) -2.36 ± 0.13; (37 °C) -1.24 ± 0.18.
The like results for GAACAGCAAUAUUACGAUUC were, in that order, -1.65 ± 0.072 and -1.21 ± 0.11.
As to CCGGAGCAAUAUUACGUGAA, for the setting “37 °C”, the “self-splicing fitness (ln)” value was -1.86 ± 0.31.
On to GUGUAGCAAUAUUACGAGCC, for which the “self-splicing fitness (ln)” value (30 °C) is -2.65 ± 0.38 and the “self-splicing fitness (ln)” value (37 °C) was -2.28 ± 0.31.
Take GAGUAGCAAUAUUACGGCGC: the “self-splicing fitness (ln)” value is -0.602 ± 0.14 (30 °C) and 0.407 ± 0.19 (37 °C).
In the case of UUCAAGCAAUAUUACGACGC, the “self-splicing fitness (ln)” value is -1.27 ± 0.19 (30 °C) and -1.14 ± 0.26 (37 °C).
The like results for UGGGAGCAAUAUUACGGAGC were, in that order, -3.98 ± 0.46 and -1.65 ± 0.5.
The like results for CCCAAGCAAUAUUACGAAGG were, in that order, -3.19 ± 0.17 and -2.42 ± 0.17.
On the same counts, the results for AGUAAGCAAUAUUACGUAGG are -3.99 ± 0.19 and -3.09 ± 0.22.
Consider GGGUAGCAAUAUUACGGAAA, for which the “self-splicing fitness (ln)” value was -1.82 ± 0.34 (30 °C) and 0.517 ± 0.27 (37 °C).
The like results for CAGAAGCAAUAUUACGGCAA were, in that order, -2.48 ± 0.22 and -1.25 ± 0.19.
The like results for CCGCAGCAAUAUUACGCACC were, in that order, -3.46 ± 0.23 and -2.05 ± 0.24.
On the same counts, the results for UUCUAGCAAUAUUACGACUC are -3.11 ± 0.31 and -0.392 ± 0.14.
Consider CAUGAGCAAUAUUACGUUAC, for which the “self-splicing fitness (ln)” value is, setting by setting: (30 °C) -3.24 ± 0.15; (37 °C) -3.39 ± 0.2.
On the same counts, the results for UAACAGCAAUAUUACGGGCG are -0.476 ± 0.064 and 0.217 ± 0.087.
For CGCGAGCAAUAUUACGUAAU, the “self-splicing fitness (ln)” value runs as follows: (30 °C) -3.36 ± 0.27; (37 °C) -3.23 ± 0.4.
The like results for AACCAGCAAUAUUACGUCGU were, in that order, -1.26 ± 0.046 and -0.25 ± 0.058.
As for GUACAGCAAUAUUACGCACG, the “self-splicing fitness (ln)” value is, setting by setting: (30 °C) -2.42 ± 0.28; (37 °C) -0.89 ± 0.19.
On the same counts, the results for ACGUAGCAAUAUUACGCAGU are -2.58 ± 0.2 and -2.54 ± 0.24.
On the same counts, the results for ACUGAGCAAUAUUACGGAGC are -2.54 ± 0.23 and -1.44 ± 0.28.
The like results for ACGCAGCAAUAUUACGCCCA were, in that order, -0.672 ± 0.096 and -0.153 ± 0.12.
Regarding UCCCAGCAAUAUUACGUUAU, the “self-splicing fitness (ln)” value is, setting by setting: (30 °C) -4.35 ± 0.18; (37 °C) -2.47 ± 0.17.
On the same counts, the results for GUAGAGCAAUAUUACGAUAC are -1.42 ± 0.13 and -0.561 ± 0.18.
The like results for UGUUAGCAAUAUUACGCGGA were, in that order, -0.526 ± 0.082 and -0.401 ± 0.087.
Take GUCAAGCAAUAUUACGAGGC: the “self-splicing fitness (ln)” value is, setting by setting: (30 °C) -3.94 ± 0.24; (37 °C) -2.83 ± 0.18.
The like results for CCUGAGCAAUAUUACGGAUC were, in that order, -2.1 ± 0.17 and -2.53 ± 0.22.
Consider AGCGAGCAAUAUUACGCGUG, for which the “self-splicing fitness (ln)” value runs as follows: (30 °C) -1.48 ± 0.098; (37 °C) -1.65 ± 0.13.
As for GUUAAGCAAUAUUACGUCUU, the “self-splicing fitness (ln)” value runs as follows: (30 °C) -0.682 ± 0.09; (37 °C) -0.56 ± 0.11.
On the same counts, the results for CCCGAGCAAUAUUACGAAGU are -3.58 ± 0.18 and -2.75 ± 0.24.
With GGGCAGCAAUAUUACGAUGG, the “self-splicing fitness (ln)” value (30 °C) is -3.22 ± 0.35.
Turning to AAUAAGCAAUAUUACGUAGA, the “self-splicing fitness (ln)” value is, setting by setting: (30 °C) -1.51 ± 0.11; (37 °C) -0.998 ± 0.13.
